The values below are quoted from earlier work in paper PMC5650667.

Series [1] addresses TRH1 receptor (Homo sapiens) (UniProt P34981). In words: radioligand binding.
Another series addresses RXFP2 (Homo sapiens) (UniProt Q8WXD0).
The target in another series is RXFP4 (Homo sapiens) (UniProt Q8TDU9).
UniProt Q8TDU9, sequence (Q8TDU9 whole entry): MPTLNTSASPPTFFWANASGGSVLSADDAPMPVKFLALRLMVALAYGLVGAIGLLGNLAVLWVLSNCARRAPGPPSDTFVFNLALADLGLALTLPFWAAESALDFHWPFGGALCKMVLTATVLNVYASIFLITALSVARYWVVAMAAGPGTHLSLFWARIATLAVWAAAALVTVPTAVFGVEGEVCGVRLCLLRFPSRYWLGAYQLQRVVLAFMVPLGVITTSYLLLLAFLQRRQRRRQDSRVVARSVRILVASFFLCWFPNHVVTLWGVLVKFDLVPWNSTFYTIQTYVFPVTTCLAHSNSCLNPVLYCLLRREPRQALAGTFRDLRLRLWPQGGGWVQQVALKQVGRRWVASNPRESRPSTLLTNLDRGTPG

UniProt Q8WXD0, sequence (Q8WXD0 whole entry): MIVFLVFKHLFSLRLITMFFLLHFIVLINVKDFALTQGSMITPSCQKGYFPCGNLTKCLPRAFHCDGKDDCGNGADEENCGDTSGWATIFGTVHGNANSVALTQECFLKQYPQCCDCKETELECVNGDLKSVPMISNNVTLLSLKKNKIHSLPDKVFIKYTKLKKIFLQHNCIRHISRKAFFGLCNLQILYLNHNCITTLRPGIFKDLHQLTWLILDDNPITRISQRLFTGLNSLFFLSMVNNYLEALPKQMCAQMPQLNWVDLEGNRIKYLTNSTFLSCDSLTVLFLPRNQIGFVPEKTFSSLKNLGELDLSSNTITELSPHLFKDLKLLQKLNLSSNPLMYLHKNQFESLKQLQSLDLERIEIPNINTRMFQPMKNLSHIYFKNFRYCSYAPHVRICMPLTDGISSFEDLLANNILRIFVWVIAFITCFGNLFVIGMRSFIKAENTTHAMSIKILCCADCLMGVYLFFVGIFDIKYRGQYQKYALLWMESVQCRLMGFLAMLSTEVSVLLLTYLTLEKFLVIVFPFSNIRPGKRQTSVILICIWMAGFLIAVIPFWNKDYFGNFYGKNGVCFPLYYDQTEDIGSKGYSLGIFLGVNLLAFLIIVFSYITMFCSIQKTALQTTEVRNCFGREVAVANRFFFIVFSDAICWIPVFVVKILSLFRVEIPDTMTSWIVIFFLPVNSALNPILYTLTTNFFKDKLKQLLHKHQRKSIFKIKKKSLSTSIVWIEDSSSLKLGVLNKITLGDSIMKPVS
UniProt P34981, sequence (P34981 whole entry): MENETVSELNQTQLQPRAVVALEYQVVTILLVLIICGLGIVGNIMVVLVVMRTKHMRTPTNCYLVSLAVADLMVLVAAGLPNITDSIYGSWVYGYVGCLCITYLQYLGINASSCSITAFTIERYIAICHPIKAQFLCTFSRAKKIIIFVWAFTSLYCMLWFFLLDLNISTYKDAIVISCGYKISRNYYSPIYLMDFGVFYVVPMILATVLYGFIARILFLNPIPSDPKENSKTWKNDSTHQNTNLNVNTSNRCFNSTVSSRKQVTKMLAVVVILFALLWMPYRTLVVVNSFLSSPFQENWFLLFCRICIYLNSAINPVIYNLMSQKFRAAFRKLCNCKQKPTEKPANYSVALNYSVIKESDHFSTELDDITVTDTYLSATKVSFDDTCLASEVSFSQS

For the substance TRH (from UniProt P20396), the dissociation constant Kd in series [1] is 13 nM.

On to INSL3 (from UniProt P51460), for which the Kd in the series with RXFP2 (Homo sapiens) was 1 nM.

Regarding INSL5 (from UniProt Q9Y5Q6), the Kd with RXFP4 (Homo sapiens) is 5 nM.

For orientation: Kd means the constant that tells how readily two partners part at equilibrium.
